Assay results published in paper PMC5416816.
Like-named read-outs stand apart in the source and are kept apart here.

Tests used:
TIA-1 RRM23K [1] = target: T1, TIA-1 RRM23K (UniProt P31483-2 93-274); test: ITC
T1 sequence: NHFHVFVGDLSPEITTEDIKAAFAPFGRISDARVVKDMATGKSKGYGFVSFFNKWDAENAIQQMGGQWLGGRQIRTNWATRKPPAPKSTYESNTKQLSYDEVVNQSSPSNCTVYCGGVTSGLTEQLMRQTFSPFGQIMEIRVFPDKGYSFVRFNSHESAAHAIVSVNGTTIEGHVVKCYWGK

TIA-1 RRM2S = target: T2, TIA-1 RRM2S (UniProt P31483-2 95-184); test: NMR
T2 sequence: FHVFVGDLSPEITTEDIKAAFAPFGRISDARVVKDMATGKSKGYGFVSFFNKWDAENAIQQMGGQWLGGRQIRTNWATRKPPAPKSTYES

TIA-1 RRM23L [2] = target: T3, TIA-1 RRM23L (UniProt P31483-2 80-292); test: fluorescence anisotropy
T3 sequence: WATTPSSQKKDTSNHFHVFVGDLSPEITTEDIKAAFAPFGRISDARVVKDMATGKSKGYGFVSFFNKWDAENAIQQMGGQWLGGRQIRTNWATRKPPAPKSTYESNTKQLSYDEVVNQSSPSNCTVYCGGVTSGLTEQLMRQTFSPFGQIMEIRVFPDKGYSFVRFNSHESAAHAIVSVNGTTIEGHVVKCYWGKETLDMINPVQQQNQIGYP

TIA-1 RRM23S = target: T4, TIA-1 RRM23S (UniProt P31483-2 94-272); test: fluorescence anisotropy
T4 sequence: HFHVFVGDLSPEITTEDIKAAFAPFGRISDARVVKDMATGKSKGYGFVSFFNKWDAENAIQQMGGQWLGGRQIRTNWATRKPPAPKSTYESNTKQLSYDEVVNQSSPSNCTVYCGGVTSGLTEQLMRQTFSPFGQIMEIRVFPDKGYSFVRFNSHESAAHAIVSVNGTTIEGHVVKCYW

TIA-1 RRM23K [3] = target: T1, TIA-1 RRM23K; test: fluorescence anisotropy
TIA-1 RRM2L = target: T5, TIA-1 RRM2L (UniProt P31483-2 80-188); test: fluorescence anisotropy
T5 sequence: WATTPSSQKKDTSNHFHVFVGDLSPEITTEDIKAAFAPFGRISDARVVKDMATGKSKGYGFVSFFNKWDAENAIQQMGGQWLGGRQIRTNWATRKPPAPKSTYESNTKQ

TIA-1 RRM23L [4] = target: T3, TIA-1 RRM23L; test: NMR
TIA-1 RRM23L [5] = target: T3, TIA-1 RRM23L; test: NMR; remark: listed apart in the source

Binder: UUUUUACUCC (ssRNA) [UC-rich RNA (unlabeled)]
- Kd (TIA-1 RRM23K [1]): 12 ± 2 nM

Binder: TTTTT (ssDNA) [TTTTT DNA]
- binding result (TIA-1 RRM2S): binds

Binder: ACUCCUUUUU (ssRNA) [CU-rich RNA (unlabeled)]
- Kd (TIA-1 RRM23K [1]): 70 ± 3 nM

Binder: ACUCCUUUUU (ssRNA) [CU-rich RNA]
- Kd (TIA-1 RRM23L [2]): 130 ± 7 nM
- Kd (TIA-1 RRM23S): 6600 ± 700 nM
- Kd (TIA-1 RRM23K [3]): 130 ± 10 nM
- Kd (TIA-1 RRM2L): 9100 ± 2000 nM

Binder: ACTCCTTTTT (ssDNA) [CT-rich DNA]
- Kd (TIA-1 RRM23K [3]): 30 ± 3 nM

Binder: UUUUUACUCC (ssRNA) [UC-rich RNA]
- Kd (TIA-1 RRM23K [3]): 5 ± 0.3 nM

Binder: TTTTTACTCC (ssDNA, 5' thiol C6 S-S) [5'thiol TC-rich DNA]
- binding result (TIA-1 RRM23L [4]): binds

Binder: TTTTTACTCC (ssDNA, 5' thiol C6 coupled to PROXYL) [PROXYL TC-rich DNA]
- binding result (TIA-1 RRM23L [5]): binds

Binder: TTTTTACTCC (ssDNA) [TC-rich DNA]
- Kd (TIA-1 RRM23K [3]): 8 ± 1 nM
